Measurements: PMC3012730, “The Actinobacillus pleuropneumoniae HMW1C-Like Glycosyltransferase Mediates N-Linked Glycosylation of the Haemophilus influenzae HMW1 Adhesin” (PLoS ONE, 2010)

Legend:
[1] = test system: O=c1ccn([C@@H]2O[C@H](COP(=O)(O)OP(=O)(O)O[C@H]3O[C@H](CO)[C@H](O)[C@H](O)[C@H]3O)[C@@H](O)[C@H]2O)c(=O)[nH]1; assay: purified protein; conditions: apparent Km, fixed acceptor protein His-HMW1ct (standard 3.2 µM), 50 mM HEPES pH 8.0, 50 mM KCl, 5 mM MgCl2, room temperature
[2] = test system: O=c1ccn([C@@H]2O[C@H](CO[P@@](=O)(O)O[P@@](=O)(O)O[C@H]3O[C@H](CO)[C@@H](O)[C@H](O)[C@H]3O)[C@@H](O)[C@H]2O)c(=O)[nH]1; assay: purified protein; conditions: apparent Km, fixed acceptor protein His-HMW1ct (standard 3.2 µM), 50 mM HEPES pH 8.0, 50 mM KCl, 5 mM MgCl2, room temperature

Which results are given for “ApHMW1C (Actinobacillus pleuropneumoniae serovar 5b str. L20)”?
Km [1]: 147.5 ± 24.8 µM; Vmax [1]: 0.0643 µmol/min/mg; kcat [1]: 0.077 ± 0.005 s⁻¹; kcat/Km [1]: 520 ± 210 M⁻¹ s⁻¹; Km [2]: 38.9 ± 5.8 µM; Vmax [2]: 0.109 µmol/min/mg; kcat [2]: 0.13 ± 0.005 s⁻¹; kcat/Km [2]: 3300 ± 800 M⁻¹ s⁻¹
